Measured values as given in patent publication US20060014712A1 (CeMines, Inc., published 2006).
Like-named read-outs stand apart in the source and are kept apart here.

Key:
Experiment in all cases: cell-based or functional assay
SOX10 [1] = target: T1, SOX10 (Homo sapiens (Human), UniProt P56693)
STAT3 [2] = target: T2, STAT3 (Homo sapiens (Human), UniProt P40763)
SOX10 [3] = target: T1, SOX10; remark: listed apart in the source
MITF [4] = target: T3, MITF (Homo sapiens (Human), UniProt O75030-9)
MITF [5] = target: T3, MITF; remark: listed apart in the source
STAT3 [6] = target: T2, STAT3; remark: listed apart in the source

Binder	Apoptosis 7 d/% in SK-MEL-28 (SOX10 [1])	Apoptosis 7 d/% in SK-MEL-28 (STAT3 [2])	Apoptosis 7 d/% in SK-MEL-28 (SOX10 [3])	Apoptosis 7 d/% in SK-MEL-28 (MITF [4])	other results
RPKKRKVRRRVKRPMNAFMVWAQAARRKLADQY [SOX10-int1]	55%	–	–	–	–
STAT3-int1M (peptide) peptide: TTGGSSPQGLEAKRPKKRKVRRRKMQQLEQMLTALDQMRRSIVSELAGLLS	–	12%	–	–	–
TTGGSSPQGLEAKRPKKRKVRRRVKRPMNAFMVWAQAARRKLADQY [SOX10-int1M]	–	–	32%	–	–
Scr-int1M (peptide) peptide: TTGGSSPQGLEAKRPKKRKVRRRQLMLEPYALDMSRIRVLSESLGLATQSG	–	0%	0%	0%	–
TTGGSSPQGLEAKRPKKRKVRRRFNINDRIKELGTLIPKSNDPDMRWN [MITF-int1M]	–	–	–	20%	–
RPKKRKVRRRQLMLEPYALDMSRIRVLSESLGLATQSG [Scr-int1]	0%	–	–	–	Apoptosis 7 d/% in SK-MEL-28 (MITF [5]): 0%; Apoptosis 7 d/% in SK-MEL-28 (STAT3 [6]): 0%
